Values belong to the binder of their own block, whether it stands above or below them.
Tests used:
[1] = target: T1, human c-Kit-Fc fusion protein (human, UniProt P10721 26-520, limits assumed); assay: ELISA, coated human c-Kit-Fc, against AMG191
T1 construct: not shown: Fc part of the fusion protein
Experimental: (§1) Antigen binding activity measurement by ELISA. 96-well plates (Nunc, Roskilde, Denmark) were coated with 1 ug/ml human c-Kit-Fc fusion protein in phosphate-buffered saline (PBS) for 16 hr at 4° C. After blocking for 1 hr with 0.4% BSA in PBS at room temperature, anti-c-Kit antibodies were added in 1/3 sequential dilutions, and incubated for 1 hr at room temperature. Plates were subsequently washed three times and incubated with HRP-conjugated goat anti-human kappa-specific antibody for 1 hr at room temperature. After washing, plates were developed with TMB. The reaction was stopped with 2M […], and OD was measured at 450 nm.

[2] = target: T1, human c-Kit-Fc fusion protein; assay: ELISA, coated human c-Kit-Fc
Experimental: as §1

[3] = target: T1, human c-Kit-Fc fusion protein; assay: ELISA, coated human c-Kit-Fc, FIG. 2D (members named at paragraph 117)
Experimental: as §1

[4] = target: T1, human c-Kit-Fc fusion protein; assay: ELISA, coated human c-Kit-Fc; AMG191 is the reference
Experimental: as §1

[5] = target: T1, human c-Kit-Fc fusion protein; assay: ELISA, coated human c-Kit-Fc, FIG. 2C (members named at paragraph 117)
Experimental: as §1

[6] = target: T1, human c-Kit-Fc fusion protein; assay: ELISA, coated human c-Kit-Fc, FIG. 3D, against AMG191 (members named at paragraph 118)
Experimental: as §1

[7] = target: T1, human c-Kit-Fc fusion protein; assay: ELISA, coated human c-Kit-Fc, FIG. 3C, against AMG191
Experimental: as §1

T1 sequence (P10721 26-520 limits assumed): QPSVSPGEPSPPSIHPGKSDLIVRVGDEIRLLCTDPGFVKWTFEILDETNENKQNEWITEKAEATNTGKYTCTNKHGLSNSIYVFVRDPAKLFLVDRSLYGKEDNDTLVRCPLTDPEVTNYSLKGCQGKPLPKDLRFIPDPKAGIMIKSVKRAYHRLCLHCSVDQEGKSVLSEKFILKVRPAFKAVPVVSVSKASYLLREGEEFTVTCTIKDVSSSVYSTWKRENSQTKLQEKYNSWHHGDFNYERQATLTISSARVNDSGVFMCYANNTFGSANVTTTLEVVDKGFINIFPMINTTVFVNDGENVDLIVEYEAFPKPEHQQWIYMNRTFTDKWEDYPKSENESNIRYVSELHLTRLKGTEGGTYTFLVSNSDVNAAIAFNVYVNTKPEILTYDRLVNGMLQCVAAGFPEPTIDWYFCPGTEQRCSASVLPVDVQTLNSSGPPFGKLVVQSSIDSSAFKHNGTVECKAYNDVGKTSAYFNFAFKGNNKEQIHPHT

binding result [3]: binds
B7: AF-3 (antibody, V domains shown)
VH: QVQLVQSGAEVKKPGASVKVSCKASGYTFTSYNMHWVRQAPGQGLEWMGVIYSGNGDTSYNQKFKGRVTITADKSTSTAYMELSSLRSEDTAVYYCARDRDTRFGNWGQGTLVTVSS
VL: DIVMTQSPDSLAVSLGERATINCRASESVDIYGQSFMHWYQQKPGQPPKLLIYLASNLESGVPDRFSGSGSGTDFTLTISSLQAEDVAVYYCQQNNEDPYTFGGGTKVEIK

binding result [2]: binds
B9: NF112 (antibody, human IgG1, V domains shown)
VH: EVQLLESGGGLVQPGGSLRLSCAASGFTFTSYNMHWVRQAPGKGLEWVGVIYSGNGDTSYAQKFQGRFTISADKSKNTAYLQMNSLRAEDTAVYYCARERDTRFGNWGQGTLVTVSS
VL: DIVMTQSPLSLPVTPGEPASISCRASESVDIYGQSFMHWYLQKPGQSPQLLIYLASNLESGVPDRFSGSGSGTDFTLKISRVEAEDVGVYYCQQNNEDPYTFGGGTKVEIK

binding result [7]: binds
B10: NF (antibody, V domains shown)
VH: EVQLLESGGGLVQPGGSLRLSCAASGFTFTSYNMHWVRQAPGKGLEWVGVIYSGNGDTSYNQKFKGRFTISADKSKNTAYLQMNSLRAEDTAVYYCARERDTRFGNWGQGTLVTVSS
VL: DIVMTQSPLSLPVTPGEPASISCRASESVDIYGNSFMHWYLQKPGQSPQLLIYLASNLESGVPDRFSGSGSGTDFTLKISRVEAEDVGVYYCQQNNEDPYTFGGGTKVEIK
notes: also called antibody with the new frameworks (NF)

binding result [2]: binds
B11: NF12 (antibody, V domains shown)
VH: EVQLLESGGGLVQPGGSLRLSCAASGFTFTSYNMHWVRQAPGKGLEWVGVIYSGNGDTSYNQKFQGRFTISADKSKNTAYLQMNSLRAEDTAVYYCARERDTRFGNWGQGTLVTVSS
VL: DIVMTQSPLSLPVTPGEPASISCRASESVDIYGQSFMHWYLQKPGQSPQLLIYLASNLESGVPDRFSGSGSGTDFTLKISRVEAEDVGVYYCQQNNEDPYTFGGGTKVEIK

Further lines, the binder ahead of its results:

B1: AF11 (antibody, V domains shown)
VH: QVQLVQSGAEVKKPGASVKVSCKASGYTFTSYNMHWVRQAPGQGLEWMGVIYSGNGDTSYAQKFKGRVTITADKSTSTAYMELSSLRSEDTAVYYCARERDTRFGNWGQGTLVTVSS
VL: DIVMTQSPDSLAVSLGERATINCRASESVDIYGQSFMHWYQQKPGQPPKLLIYLASNLESGVPDRFSGSGSGTDFTLTISSLQAEDVAVYYCQQNNEDPYTFGGGTKVEIK
binding result [1]: binds

B2: HF112 (antibody, human IgG1, V domains shown)
VH: QVQLVQSGAEVKKPGASVKVSCKASGYTFTSYNMHWVRQAPGQGLEWMGVIYSGNGDTSYAQKFQGRVTITADKSTSTAYMELSSLRSEDTAVYYCARERDTRFGNWGQGTLVTVSS
VL: DIVMTQSPLSLPVTPGEPASISCRASESVDIYGQSFMHWYLQKPGQSPQLLIYLASNLESGVPDRFSGSGSGTDFTLKISRVEAEDVGVYYCQQNNEDPYTFGGGTKVEIK
binding result [2]: binds

B3: AF-2-1 (antibody, V domains shown)
VH: QVQLVQSGAEVKKPGASVKVSCKASGYTFTSYNMHWVRQAPGQGLEWMGVIYSGQGDTSYNQKFKGRVTITADKSTSTAYMELSSLRSEDTAVYYCARERDTRFGNWGQGTLVTVSS
VL: DIVMTQSPDSLAVSLGERATINCRASESVDIYGQSFMHWYQQKPGQPPKLLIYLASNLESGVPDRFSGSGSGTDFTLTISSLQAEDVAVYYCQQNNEDPYTFGGGTKVEIK
binding result [3]: binds

B4: AMG191 (antibody, V domains shown)
VH: QVQLVQSGAEVKKPGASVKVSCKASGYTFTSYNMHWVRQAPGQGLEWMGVIYSGNGDTSYNQKFKGRVTITADKSTSTAYMELSSLRSEDTAVYYCARERDTRFGNWGQGTLVTVSS
VL: DIVMTQSPDSLAVSLGERATINCRASESVDIYGNSFMHWYQQKPGQPPKLLIYLASNLESGVPDRFSGSGSGTDFTLTISSLQAEDVAVYYCQQNNEDPYTFGGGTKVEIK
notes: Humanized form of HB-10716; constant region has an N to E mutation of position 297 (unglycosylated, silenced Fc); kappa light chain implied by the anti-human kappa detection
binding result [4]: binds

B5: AF12 (antibody, human IgG1, V domains shown)
VH: QVQLVQSGAEVKKPGASVKVSCKASGYTFTSYNMHWVRQAPGQGLEWMGVIYSGNGDTSYNQKFQGRVTITADKSTSTAYMELSSLRSEDTAVYYCARERDTRFGNWGQGTLVTVSS
VL: DIVMTQSPDSLAVSLGERATINCRASESVDIYGQSFMHWYQQKPGQPPKLLIYLASNLESGVPDRFSGSGSGTDFTLTISSLQAEDVAVYYCQQNNEDPYTFGGGTKVEIK
binding result [5]: binds

B6: AF112 (antibody, human IgG1, V domains shown)
VH: QVQLVQSGAEVKKPGASVKVSCKASGYTFTSYNMHWVRQAPGQGLEWMGVIYSGNGDTSYAQKFQGRVTITADKSTSTAYMELSSLRSEDTAVYYCARERDTRFGNWGQGTLVTVSS
VL: DIVMTQSPDSLAVSLGERATINCRASESVDIYGQSFMHWYQQKPGQPPKLLIYLASNLESGVPDRFSGSGSGTDFTLTISSLQAEDVAVYYCQQNNEDPYTFGGGTKVEIK
binding result [5]: binds

B8: NF11 (antibody, V domains shown)
VH: EVQLLESGGGLVQPGGSLRLSCAASGFTFTSYNMHWVRQAPGKGLEWVGVIYSGNGDTSYAQKFKGRFTISADKSKNTAYLQMNSLRAEDTAVYYCARERDTRFGNWGQGTLVTVSS
VL: DIVMTQSPLSLPVTPGEPASISCRASESVDIYGQSFMHWYLQKPGQSPQLLIYLASNLESGVPDRFSGSGSGTDFTLKISRVEAEDVGVYYCQQNNEDPYTFGGGTKVEIK
binding result [6]: binds

Source: patent US20210122822A1 (FORTY SEVEN, published 2021)
